According to patent publication US10556014B2, “Compounds containing a vascular disrupting agent” (Incanthera Ltd, priority 2007, dated 2020):
Where a SMILES comes first, the peptide text is derived from it. [ ]: non-standard residue; d: D form. The star is where a group is joined. NH(Colchicin-10-yl) = COc1cc2c(c(OC)c1OC)-c1ccc(N*)c(=O)cc1[C@@H](NC(C)=O)CC2; FITC = O=C1OC2(c3ccc(O)cc3Oc3cc(O)ccc32)c2ccc(NC(=S)*)cc21; hPhe = N[C@@H](CCc1ccccc1)C(=O)O; Cit = NC(=O)NCCC[C@H](N)C(=O)O; βAla = NCCC(=O)O

Assays:
[1] = Ex vivo stability in normal mouse liver homogenate (LC/MS/MS); assay type: in vitro ADME
Source text: (§1) [drawing 10] • a) Prodrug-1 has been screened using normal mouse plasma, normal mouse liver homogenate and experimental human tumour model homogenate (HT1080 xenograft; known to express majority of MMPs) ex vivo. Prodrug cleavage and metabolism were detected using LC/MS/MS. • a. Prodrug-1 was stable in plasma and liver, supporting systemic stability of these therapeutics (FIG. 1). • b. […] Plasma, tissues and tumours were collected at regular intervals post-dosing. Levels of prodrug and VDA2 were assessed by LC/MS/MS. • a. […] (FIG. 2) • d. […] VDA2 levels were detected at high levels in tumour tissue following prodrug-1 administration (FIG. 3) • f.
(§2) [drawing 11] • d) Compound 1 was modified in order to change the MMP-targeting of the compound from being pan-MMP to MT-MMP selective (Prodrug-2) • a. Arginine was incorporated in place of the Glutamic acid at the P4 position • b. […] Prodrug-2 cleavage and metabolism were detected using LC/MS/MS. • a. […] Prodrug-2 is not cleaved by recombinant MMP-9, in contrast to prodrug-1 • d. […] Plasma, tissues and tumours were collected at regular intervals post-dosing. Levels of prodrug-2 and VDA2 were assessed by LC/MS/MS. • a. […] Liver was representative of all normal tissues analysed. (FIG. 5) • d. […] Levels of VDA2 in tumour were 10 times higher than that detected in normal tissues following administration of prodrug-2 (FIG. 6) • g. […]

[2] = Ex vivo stability in normal mouse plasma (LC/MS/MS); assay type: in vitro ADME
Source text: as §1, §2

[3] = system: HT1080 xenograft tumour homogenate; assay: Ex vivo metabolism in experimental human tumour model homogenate (HT1080 xenograft); assay type: in vitro ADME
Source text: as §1, §2

[4] = Levels of prodrug and VDA2 in plasma, tissues and tumour after intraperitoneal dosing of mice bearing subcutaneous HT1080 tumour; assay type: in vivo; conditions: HT1080 tumour bearing mice; for prodrug tissue distribution: all tissues analysed
Source text: as §1
[drawing 11] • d) Compound 1 was modified in order to change the MMP-targeting of the compound from being pan-MMP to MT-MMP selective (Prodrug-2) • a. Arginine was incorporated in place of the Glutamic acid at the P4 position • b. […] Prodrug-2 cleavage and metabolism were detected using LC/MS/MS. • a. […] Prodrug-2 is not cleaved by recombinant MMP-9, in contrast to prodrug-1 • d. […] Plasma, tissues and tumours were collected at regular intervals post-dosing. Levels of prodrug-2 and VDA2 were assessed by LC/MS/MS. • a. […] Liver was representative of all normal tissues analysed. (FIG. 5) • d. VDA2 was undetectable in plasma following administration of prodrug-2 (FIG. 6) • e. […] Levels of VDA2 in tumour were 10 times higher than that detected in normal tissues following administration of prodrug-2 (FIG. 6) • g. High levels of prodrug-2 and VDA2 were still detectable in tumour 48 hours post administration.

COc1cc2c(c(OC)c1OC)-c1ccc(NC(=O)[C@H](Cc3ccc(O)cc3)NC(=O)[C@H](CC(C)C)NC(=O)[C@H](Cc3ccc(O)cc3)NC(=O)[C@H](CCc3ccccc3)NC(=O)CNC(=O)[C@H](CCCNC(N)=O)NC(=O)[C@@H]3CCCN3C(=O)[C@H](CCC(=O)O)NC(=O)CCNC(=S)Nc3ccc4c(c3)C(=O)OC43c4ccc(O)cc4Oc4cc(O)ccc43)c(=O)cc1[C@@H](NC(C)=O)CC2 [Prodrug-1] ({FITC-βAla}-EP[Cit]G[hPhe]YLY-{NH(Colchicin-10-yl)})
stability in liver homogenate [1]: stable | stability in plasma [2]: stable | metabolism in tumour homogenate ([3]; HT1080 xenograft homogenate (expresses majority of MMPs)): metabolised | VDA2 levels in normal tissues following prodrug administration [4]: detectable at low levels | VDA2 levels in tumour following prodrug administration [4]: high levels | prodrug levels in the tumour compared with other tissues [4]: Highest | VDA2 level in normal tissues after 24 hours post-dosing with prodrug ([4]; 24 hours): undetectable | VDA2 level in tumour after 24 hours post-dosing with prodrug ([4]; 24 hours): still detectable at high levels | prodrug level after 24 hours post-dosing ([4]; 24 hours): not detectable | prodrug tissue distribution [4]: accumulated and was detected in all tissues analysed

COc1cc2c(c(OC)c1OC)-c1ccc(NC(=O)[C@H](Cc3ccc(O)cc3)NC(=O)[C@H](CC(C)C)NC(=O)[C@H](Cc3ccc(O)cc3)NC(=O)[C@H](CCc3ccccc3)NC(=O)CNC(=O)[C@H](CCCNC(N)=O)NC(=O)[C@H](CO)NC(=O)[C@H](CCCNC(=N)N)NC(=O)CCNC(=S)Nc3ccc4c(c3)C(=O)OC43c4ccc(O)cc4Oc4cc(O)ccc43)c(=O)cc1[C@@H](NC(C)=O)CC2 [Prodrug-2] ({FITC-βAla}-RS[Cit]G[hPhe]YLY-{NH(Colchicin-10-yl)})
stability in liver homogenate [1]: remained stable | stability in plasma [2]: remained intact | metabolism in tumour homogenate expressing high MT-MMP levels ([3]; HT1080 homogenate, relative to homogenate expressing low MT-MMP levels (MCF7)): metabolised rapidly | VDA2 level in plasma following prodrug administration [4]: undetectable | VDA2 levels in tumour following prodrug administration [4]: High concentrations | levels of VDA2 in tumour relative to normal tissues following prodrug administration [4]: 10 times | prodrug levels in the tumour compared with other tissues [4]: Highest | VDA2 level in tumour 48 hours post prodrug administration ([4]; 48 hours): High levels | prodrug level in tumour 48 hours post administration ([4]; 48 hours): High levels | prodrug tissue distribution [4]: accumulated and was detected in all tissues analysed
